One block for each molecule: values may come before it.
Experiments:
hexYME1L (human) [1] = molecular target: T1, hexYME1L (human) (UniProt Q96TA2)
T1 sequence: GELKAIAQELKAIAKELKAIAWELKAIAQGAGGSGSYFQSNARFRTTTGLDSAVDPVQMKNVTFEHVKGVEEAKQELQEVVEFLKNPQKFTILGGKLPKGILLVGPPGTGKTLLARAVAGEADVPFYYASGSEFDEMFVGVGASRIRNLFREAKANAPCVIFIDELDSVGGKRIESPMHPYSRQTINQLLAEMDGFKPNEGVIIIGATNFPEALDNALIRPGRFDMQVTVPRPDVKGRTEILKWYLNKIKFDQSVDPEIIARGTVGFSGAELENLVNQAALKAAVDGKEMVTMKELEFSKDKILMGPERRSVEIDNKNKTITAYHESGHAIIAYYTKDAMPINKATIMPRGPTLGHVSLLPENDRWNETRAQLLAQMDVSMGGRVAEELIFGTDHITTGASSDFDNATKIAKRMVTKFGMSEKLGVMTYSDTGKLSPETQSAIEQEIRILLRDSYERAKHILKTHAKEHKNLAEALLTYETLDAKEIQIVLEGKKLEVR

hexYME1L (human) [2] = molecular target: T1, hexYME1L (human); remark: listed apart in the source
hexYME1L (human) [3] = molecular target: T1, hexYME1L (human); remark: listed apart in the source
purified protein = substrate: Nc1ncnc2c1ncn2[C@@H]1O[C@H](COP(=O)(O)OP(=O)(O)OP(=O)(O)O)[C@@H](O)[C@H]1O; experiment: purified protein; details: Hill form of Michaelis-Menten equation, MgCl2 5 mM, pH 8.0, 37 °C, no protein substrate
[4] = molecular target: the molecule itself; experiment: SEC; analytical SEC, Superose 6 Increase 10/300 GL; 1 mg of protein in 200 μl; 50 mM Tris-HCl (pH 8.0), 100 mM NaCl, 0.5 mM TCEP; hexYME1L also with 5 mM EDTA or with ATPγS and MgCl2 (no change in migration)

stimulation of the ATPase rate of hexYME1L (0.25 μM) by 20 μM substrate (not significant) (hexYME1L (human) [1]): 6%
Molecule: I27 domain of human titin (domain or fragment)

stimulation of the ATPase rate of hexYME1L (0.25 μM) by 20 μM substrate (not significant) (hexYME1L (human) [1]): 14%
Molecule: carboxymethylated I27 domain of human titin (domain or fragment)

KM of ATP-dependent degradation by hexYME1L (1 μM), loss of GFP fluorescence, 37 °C (hexYME1L (human) [2]): 15.2 µM
Molecule: cp7-^SFGFP-sul20C

KM of ATP-dependent degradation by hexYME1L (1 μM), loss of GFP fluorescence, 37 °C (hexYME1L (human) [2]): 12 µM
Molecule: cp7-^SFGFP-ssrA

initial rate of ATP-dependent degradation of β-casein (20 μM) by hexYME1L (1 μM), SDS-PAGE (β-casein molecules min^−1 enz6^−1) (hexYME1L (human) [3]): 0.49
B1: β-casein (natural protein)
chain: RELEELNVPGEIVESLSSSEESITRINKKIEKFQSEEQQQTEDELQDKIHPFAQTQSLVYPFPGPIPNSLPQNIPPLTQTPVVVPPFLQPEVMGVSKVKEAMAPKHKEMPFPKYPVEPFTESQSLTLTDVENLHLPLPLLQSWMHQPHQPLPPTVMFPPQSVLSLSQSKVLPVPQKAVPYPQRDMPIQAFLLYQEPVLGPVRGPFPIIV

B2: hexYME1L (Homo sapiens) (protein)
chain: RFRTTTGLDSAVDPVQMKNVTFEHVKGVEEAKQELQEVVEFLKNPQKFTILGGKLPKGILLVGPPGTGKTLLARAVAGEADVPFYYASGSEFDEMFVGVGASRIRNLFREAKANAPCVIFIDELDSVGGKRIESPMHPYSRQTINQLLAEMDGFKPNEGVIIIGATNFPEALDNALIRPGRFDMQVTVPRPDVKGRTEILKWYLNKIKFDQSVDPEIIARGTVGFSGAELENLVNQAALKAAVDGKEMVTMKELEFSKDKILMGPERRSVEIDNKNKTITAYHESGHAIIAYYTKDAMPINKATIMPRGPTLGHVSLLPENDRWNETRAQLLAQMDVSMGGRVAEELIFGTDHITTGASSDFDNATKIAKRMVTKFGMSEKLGVMTYSDTGKLSPETQSAIEQEIRILLRDSYERAKHILKTHAKEHKNLAEALLTYETLDAKEIQIVLEGKKLEVR
K0.5 (purified protein): 1.4 mM

B3: hexYME1L (enzyme, human)
chain: GELKAIAQELKAIAKELKAIAWELKAIAQGAGGSGSYFQSNARFRTTTGLDSAVDPVQMKNVTFEHVKGVEEAKQELQEVVEFLKNPQKFTILGGKLPKGILLVGPPGTGKTLLARAVAGEADVPFYYASGSEFDEMFVGVGASRIRNLFREAKANAPCVIFIDELDSVGGKRIESPMHPYSRQTINQLLAEMDGFKPNEGVIIIGATNFPEALDNALIRPGRFDMQVTVPRPDVKGRTEILKWYLNKIKFDQSVDPEIIARGTVGFSGAELENLVNQAALKAAVDGKEMVTMKELEFSKDKILMGPERRSVEIDNKNKTITAYHESGHAIIAYYTKDAMPINKATIMPRGPTLGHVSLLPENDRWNETRAQLLAQMDVSMGGRVAEELIFGTDHITTGASSDFDNATKIAKRMVTKFGMSEKLGVMTYSDTGKLSPETQSAIEQEIRILLRDSYERAKHILKTHAKEHKNLAEALLTYETLDAKEIQIVLEGKKLEVR
notes: cc-hex, de novo designed peptide that forms a hexameric coiled coil; replaces the N-terminal domain and transmembrane span of YME1L; 10-residue linker between cc-hex and YME1L-AP; human YME1L isoform 1, AAA+ ATPase domain and M41 protease domain, residues 317-773; also called hexYME1L-AP; hexameric YME1L; source: E. coli BL21 (DE3), purified (glutathione agarose, TEV cleavage, Ni-NTA, SEC); not …
stoichiometry N [4]: ~6
